Kd data for 3 substances are collected here from article PMC7114247.

The data set addresses rVP35 wt (Zaire ebolavirus) (UniProt Q05127).
Chain of UniProt Q05127 (Q05127 whole entry): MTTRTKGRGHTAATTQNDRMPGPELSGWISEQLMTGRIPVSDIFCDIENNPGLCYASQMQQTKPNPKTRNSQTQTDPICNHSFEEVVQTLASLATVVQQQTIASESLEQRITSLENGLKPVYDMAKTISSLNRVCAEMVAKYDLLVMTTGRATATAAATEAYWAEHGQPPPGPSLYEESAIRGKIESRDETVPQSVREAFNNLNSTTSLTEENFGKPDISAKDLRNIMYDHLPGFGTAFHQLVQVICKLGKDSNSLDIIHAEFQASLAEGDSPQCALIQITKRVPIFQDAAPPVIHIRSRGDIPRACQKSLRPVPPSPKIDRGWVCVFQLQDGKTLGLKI
Substance IVT 150 bp dsRNA had a dissociation constant (Kd) of 2.4 nM.
IVT 500 bp dsRNA came in with a dissociation constant Kd of 2.8 nM.
Turning to IVT 50 bp dsRNA, the Kd was 3.2 nM.

What is called Kd is the concentration at which binding is half-saturated. Low readings indicate higher affinity, high ones lower affinity.
